How the values were obtained:
[1] = test system: ACTA2; test: ACTA2 gene expression in treated OMP-PN4 tumors by microarray; assay type: in vivo, NOD/SCID mice; conditions: 10 mg/kg once a week for 6 weeks; tumor stroma
Procedure: As described in Example 7 above, OMP-PN4 tumor-bearing NOD/SCID mice were treated with control Ab (LZ-1), 18R5, gemcitabine, or the combination of 18R5 and gemcitabine once a week for 6 weeks. The antibodies were administered at a concentration of 10 mg/kg. After they were harvested, the tumors from that experiment were analyzed for the expression of Wnt target genes at both the RNA and protein levels, using microarray and IHC, respectively.
Total RNA was extracted from the tumors, amplified, and subjected to microarray analysis. Total RNAs were amplified using the Ovation RNA Amplification System V2 (NuGEN, San Carlos, Calif.). Resulting amplified, antisense ss-cDNA was fragmented and biotinylated using the FL-Ovation cDNA Biotin Module V2 (NuGEN) for use on Affymetrix chips. Affymetrix HG-U133 plus 2 or MG 430 2.0 oligonucleotide microarrays were used in these experiments (performed at Almac Diagnostics, Durham, N.C.). […] The quality of the cDNA and the fragmented cDNA were assessed by spectrophotometer and the Bioanalyzer before the array hybridization. The scanned raw chip data were quantified and scaled using the GCOS software package (Affymetrix) and subjected to a comprehensive assessment of Gene Chip Quality Control recommended by Affymetrix to detect any chips defects and outliers, which were excluded from the subsequent data analysis. […]

[2] = test system: Wnt target genes; test: qPCR of Wnt target genes in duodenum of OMP-PN13-bearing mice; assay type: in vivo, NOD/SCID mice
Procedure: Frozen OMP-PN13 tumor cells that have been passaged twice in mice were obtained from Oncomed's tumor bank. They were thawed and injected subcutaneously into the left flank of NOD/SCID mice immediately following thawing. ˜ 25,000 viable cells were injected per animal. The mice were monitored weekly for tumor growth. After their onset, the size of the tumors was measured once weekly by caliper. 200-300 mm^3 tumor-bearing mice were dispatched in treatment groups that each contained 5 animals. […] Ab treatment was initiated the day after randomization. LZ1 was used as the negative control Ab. 3 doses of 10 mg/kg of Ab were administered via intra-peritoneal injection over a 12-day period. Mice were euthanized 24 hours after the last injection. Tumor, duodenum and liver were harvested.
Total RNAs were also extracted from tumor, duodenum and liver for Wnt target gene expression analyses using qPCR.
Tissues were immediately transferred into RNAlater (QIAGEN) at the time of harvest. RNA was extracted using the QIAGEN RNeasy for Fibrous Tissue mini kit according to the manufacturer instructions. […] All 5 tumors of each treatment group were analyzed. […] ABI SDS 2.2.1 software was used to analyze the data and calculate DeltaCt values that were converted into relative quantities. […] Fold inhibition factors were then calculated relative to control antibody (LZ1).

[3] = test system: PN4 pancreatic tumor; test: PN4 pancreatic tumor recurrence study; assay type: in vivo, Nod-Scid mice; conditions: gemcitabine 75 mg/kg once per week for 5 weeks, then antibody 10 mg/kg once per week
Procedure: PN4 pancreatic tumor recurrence study with 18R5 mAb: PN4 pancreatic tumor cells were injected into Nod-Scid mice and allowed to grow until the tumors had reached approximately 250 mm^3. The animals were given gemcitabine (75 mg/kg, once per week) for 5 weeks until tumors had regressed. The animals were randomized into two groups and given control antibody (black squares) or anti-FZD 18R5 (gray open circles). Antibodies were dosed at 10 mg/kg once per week.

[4] = target: T1, FZD8 binding to Wnt3A (Homo sapiens, UniProt Q9H461); test: Blocking of FZD8-Fc binding to Wnt3A (protein A depletion, STF293 reporter readout); assay type: biochemical; conditions: co-incubation with FZD8-Fc and Wnt3A conditioned medium, 2 hrs at 4° C., protein A beads removed
T1 construct: amino acids 1-157 of FZD8 linked in-frame to human IgG1 Fc
T1 sequence (Q9H461 28-157): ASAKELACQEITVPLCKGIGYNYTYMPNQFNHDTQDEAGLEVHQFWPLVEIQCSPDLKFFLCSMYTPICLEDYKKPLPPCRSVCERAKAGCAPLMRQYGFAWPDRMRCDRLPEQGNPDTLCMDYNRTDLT
Procedure: To assess the ability of 18R8 to block the binding of FZD to Wnt, 2 μl of 1.32 μg/μl soluble FZD8-Fc containing the Fri domain (amino acids 1-157 of FZD8 linked in-frame to human IgG1 Fc) was added to culture medium to bind Wnt3A (added as 20 μl of Wnt3A conditioned medium) either alone or in the presence of the 18R8 IgG antibody (added as 4 μl of 3.71 μg/μl). The mixtures were incubated either alone or in the presence of Protein A sepharose beads (GE Healthcare products; 20 μl of 50% solution in PBS) for two hrs at 4° C. After the incubation, the protein A beads (and any proteins complexed to the protein A beads) in each sample were removed by spinning and the supernatant was assayed for ability to induce 8×TCF luciferase activity. The supernatant was added to STF293 cells, which stably express 8×TCF (eight copies of the TCF-binding domain upstream of a firefly luciferase reporter gene) to measure canonical Wnt signaling levels and which were cultured in DMEM supplemented with antibiotics and 10% FCS. Eighteen hours following treatment of the STF293 cells, luciferase levels were measured using a dual luciferase assay kit (Promega; Madison, Wis.).

Molecule	ACTA2 expression [1]	duodenum Lgr5 ([2]; fold relative to control antibody LZ1, 3 doses of 10 mg/kg over 12 days)	Wnt target gene in the duodenum ([2]; relative to LZ1)	tumor recurrence after gemcitabine treatment [3]	blocking of FZD8 binding to Wnt3A [4]
18R5: human anti-FZD antibody; VH SEQ ID NO:10 (as 18R8), VL SEQ ID NO:14; binds FZD1, 2, 5, 7, 8 (antibody, V domains shown, 18R5/18R8 heavy chain variable region (VH); 18R5 light chain variable region (VL)) VH: EVQLVESGGGLVQPGGSLRLSCAASGFTFSHYTLSWVRQAPGKGLEWVSVISGDGSYTYYADSVKGRFTISSDNSKNTLYLQMNSLRAEDTAVYYCARNFIKYVFANWGQGTLVTVSS VL: DIELTQPPSVSVAPGQTARISCSGDNIGSFYVHWYQQKPGQAPVLVIYDKSNRPSGIPERFSGSNSGNTATLTISGTQAEDEADYYCQSYANTLSLVFGGGTKLTVLG	decreased levels of ACTA2 expression	−2.6x	unaffected	delay tumor recurrence	
18R8: human anti-FZD antibody from phage display; VH SEQ ID NO:10, VL SEQ ID NO:12; binds FZD1, 2, 5, 7, 8 (antibody, V domains shown, 18R5/18R8 heavy chain variable region (VH); 18R8 light chain variable region (VL)) VH: EVQLVESGGGLVQPGGSLRLSCAASGFTFSHYTLSWVRQAPGKGLEWVSVISGDGSYTYYADSVKGRFTISSDNSKNTLYLQMNSLRAEDTAVYYCARNFIKYVFANWGQGTLVTVSS VL: DIELTQPPSVSVAPGQTARISCSGDKLGKKYASWYQQKPGQAPVLVIYEKDNRPSGIPERFSGSNSGNTATLTISGTQAEDEADYYCSSFAGNSLEVFGGGTKLTVLG					blocked the ability of FZD8 to bind to Wnt3A

— patent US8975044B2, “Polynucleotides encoding for frizzled-binding agents and uses thereof” (OncoMed Pharmaceuticals, Inc., priority 2008, dated 2015)
